Results on 1 protein are retold here after patent publication US4579822A (priority 1983, dated 1986).

What all share (experiment): Km values of DHAK (II) for substrates and coenzyme
Common to all, as to type: biochemical, Schizosaccharomyces pombe IFO 0354
Holding throughout (conditions): other: pH 7.5, 25° C.

Substrate in series [1]: O=CC(O)CO
Substrate in series [2]: O=C(CO)CO
Substrate in series [3]: Nc1ncnc2c1ncn2[C@@H]1O[C@H](COP(=O)(O)OP(=O)(O)OP(=O)(O)O)[C@@H](O)[C@H]1O

B1: DHAK (II) (Schizosaccharomyces pombe 972h-) (protein)
chain: MSVKQFVSDGHIVRPYLLGLARSNPGLTVIEHDRVIYRTASAPGSGDLPKVTLVSGGGSGHEPTHAGFVGDGALDAVACGDIFASPSTKQIYSALKAVASPKGTLIIVKNYTGDIIHFGLAAERAKAAGMNVELVAVGDDVSVGKKRGALVGRRGLGATVLVHKIAGSAAALGLDLHQVAQVAQSVIDNAATIAASLDHCAVPGRKFETNLGPDEYEIGMGIHNEPGTFKSSPLPSIPELVTEMLSILFGEKNPDNSFVEFSSKDDVILLVNNMGGMSNLELGYATEVVSEQLAKRGIIPKRTMSGTFVTALNGPGFGITLVNASKATPDIFKYFDLPTTASGWNVSYHNAKDWEVLADGKVPTAPALEHTRNEKHSGVKADPKMFTKILKAAVDAINEFEPKTTWYDTIAGDGDCGTTLVNGGEAITKAINDKSIRLDDGVNGIDDLAYIVEDSMGGTSGGLYSIYLSALAKGVHESGDSELSVHTFAFASKYALDALFKYTRARKGFRTLIDAIQPFVETLNEGKGLDAAAKAATEGSEQTRKMDAVVGRASYVAKEELHKLDSEGGLPDPGAFALAAILNAIVEASEH
notes: DHAK (I) and DHAK (II) obtained from Schizosaccharomyces pombe IFO 0354; made in house; host or cells: Schizosaccharomyces pombe IFO 0354 (natural producer, not recombinant); cell extract, DEAE-Sepharose fraction at 0.16 M KCl, then Blue-Sepharose
A word on the Km: it is the concentration of substrate that gives half-maximal velocity. In the case of B1, the Km in series [1] was 32 µM; in series [2] it was 20 µM; in series [3], 910 µM.
